Test results: publication PMC10925157

Target: Acinetobacter baumannii rhodanese-like domain protein (Ab-RLD) (Acinetobacter baumannii)
Experiment: SEC

Acinetobacter baumannii rhodanese-like domain protein (Ab-RLD) (enzyme)
stoichiometry N: 2
